According to paper PMC2823288 (Nature structural & molecular biology, 2009):

Biological target: Full-length human DDB1 (human, UniProt Q16531 1-1140)
Test: crystal structure

Sequence of Full-length human DDB1 (Q16531 whole entry): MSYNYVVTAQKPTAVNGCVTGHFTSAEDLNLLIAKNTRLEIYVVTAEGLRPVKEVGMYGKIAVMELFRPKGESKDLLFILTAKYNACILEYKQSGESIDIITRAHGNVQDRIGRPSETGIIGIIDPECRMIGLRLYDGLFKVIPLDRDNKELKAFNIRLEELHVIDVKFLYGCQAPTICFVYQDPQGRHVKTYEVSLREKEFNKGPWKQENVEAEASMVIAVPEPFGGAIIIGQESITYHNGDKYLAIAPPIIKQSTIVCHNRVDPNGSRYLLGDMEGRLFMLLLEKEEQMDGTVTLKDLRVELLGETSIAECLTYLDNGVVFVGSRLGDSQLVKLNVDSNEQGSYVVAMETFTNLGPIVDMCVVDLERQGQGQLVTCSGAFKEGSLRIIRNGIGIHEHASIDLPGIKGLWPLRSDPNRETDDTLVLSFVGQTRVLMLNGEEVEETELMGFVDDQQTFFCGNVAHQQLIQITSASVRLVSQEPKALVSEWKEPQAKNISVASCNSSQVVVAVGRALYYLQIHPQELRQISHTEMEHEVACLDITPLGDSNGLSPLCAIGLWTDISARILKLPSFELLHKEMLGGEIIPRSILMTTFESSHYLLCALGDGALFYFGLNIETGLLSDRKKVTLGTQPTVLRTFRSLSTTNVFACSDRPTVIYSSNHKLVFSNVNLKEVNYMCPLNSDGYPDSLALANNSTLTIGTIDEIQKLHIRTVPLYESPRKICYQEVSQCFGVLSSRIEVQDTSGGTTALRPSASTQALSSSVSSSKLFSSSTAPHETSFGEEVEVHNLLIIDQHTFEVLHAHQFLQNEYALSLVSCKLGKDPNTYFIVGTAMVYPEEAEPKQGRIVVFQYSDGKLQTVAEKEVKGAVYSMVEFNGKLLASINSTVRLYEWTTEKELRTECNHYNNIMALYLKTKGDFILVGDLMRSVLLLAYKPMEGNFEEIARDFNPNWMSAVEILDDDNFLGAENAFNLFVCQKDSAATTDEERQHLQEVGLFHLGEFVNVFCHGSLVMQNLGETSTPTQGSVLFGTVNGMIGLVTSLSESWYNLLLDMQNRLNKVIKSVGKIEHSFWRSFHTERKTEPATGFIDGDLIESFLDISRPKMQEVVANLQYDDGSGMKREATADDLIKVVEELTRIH

B1: DCAF9 peptide (amino acids 5 to 17 of DCAF9/WDTC1) (peptide, UniProt Q8N5D0 5-17, looked up)
peptide: NITRDLIRRQIKE
Does B1 bind?
Result: binds
